Results taken from paper PMC4317571.

Experiments:
[1] = target: p53 K382ac peptide (Homo sapiens) (UniProt P04637); settings: cited from earlier work
[2] = target: tandem Tudor domain (TTD) of p53-binding protein 1 (53BP1), wild type (UniProt Q12888); assay: other fluorescence titration
bromodomain (BD) of p300 = assay: NMR titration
[3] = target: tandem Tudor domain (TTD) of p53-binding protein 1 (53BP1), wild type (UniProt Q12888); assay: other fluorescence titration + NMR titration

Kd [2] [µM] | Kd (bromodomain (BD) of p300) [µM] | Kd [3] [µM] | Substance | Kd [1] [µM]
– | – | – | CBP bromodomain (from UniProt Q92793) | 187
0.76 | 282 | – | p53K381acK382me2 peptide (p53 acetylated at K381 and dimethylated at K382) (from UniProt P04637 377-386) | –
– | 241 | > 5000 | p53K381ac peptide (p53 acetylated at K381) (from UniProt P04637 377-386) | –
